{"source": "patent US20160339053A1", "molecular_target": "recombinant mouse ICAM-1 (mouse) (UniProt P13597)", "sequence (P13597 28-485 limits assumed)": "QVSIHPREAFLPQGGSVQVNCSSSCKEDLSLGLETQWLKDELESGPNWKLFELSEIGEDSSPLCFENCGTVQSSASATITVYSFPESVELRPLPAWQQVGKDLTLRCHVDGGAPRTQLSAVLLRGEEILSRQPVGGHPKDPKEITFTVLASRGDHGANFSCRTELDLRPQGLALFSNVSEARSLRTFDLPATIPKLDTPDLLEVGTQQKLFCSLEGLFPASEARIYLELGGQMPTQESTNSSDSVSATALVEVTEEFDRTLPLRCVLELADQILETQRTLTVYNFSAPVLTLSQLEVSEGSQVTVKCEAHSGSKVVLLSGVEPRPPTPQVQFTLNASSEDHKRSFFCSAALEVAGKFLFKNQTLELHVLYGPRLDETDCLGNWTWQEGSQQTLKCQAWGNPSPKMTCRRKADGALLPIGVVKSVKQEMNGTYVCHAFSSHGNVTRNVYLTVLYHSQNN", "assay": "cell-based or functional assay", "data": [{"substance": "LFA-1 on mouse preactivated CD4+ T cells (from UniProt P24063 24-1162; P11835 24-771) (receptor)", "values": [{"measurement": "adhesion of WT preactivated CD4+ T cells to ICAM-1-coated plates (percent of input cells)", "value": 10, "unit": "%"}, {"measurement": "adhesion of WT preactivated CD4+ T cells to ICAM-1-coated plates, fold over basal after CXCL12, CCL21 or anti-CD3", "value": "2 to 5", "unit": "fold"}]}]}
